IntAct's records for PubMed 17190814

B1: Antiviral innate immune response receptor RIG-I (Homo sapiens), O95786-1 (parent)
chain: MTTEQRRSLQAFQDYIRKTLDPTYILSYMAPWFREEEVQYIQAEKNNKGPMEAATLFLKFLLELQEEGWFRGFLDALDHAGYSGLYEAIESWDFKKIEKLEEYRLLLKRLQPEFKTRIIPTDIISDLSECLINQECEEILQICSTKGMMAGAEKLVECLLRSDKENWPKTLKLALEKERNKFSELWIVEKGIKDVETEDLEDKMETSDIQIFYQEDPECQNLSENSCPPSEVSDTNLYSPFKPRNYQLELALPAMKGKNTIICAPTGCGKTFVSLLICEHHLKKFPQGQKGKVVFFANQIPVYEQQKSVFSKYFERHGYRVTGISGATAENVPVEQIVENNDIIILTPQILVNNLKKGTIPSLSIFTLMIFDECHNTSKQHPYNMIMFNYLDQKLGGSSGPLPQVIGLTASVGVGDAKNTDEALDYICKLCASLDASVIATVKHNLEELEQVVYKPQKFFRKVESRISDKFKYIIAQLMRDTESLAKRICKDLENLSQIQNREFGTQKYEQWIVTVQKACMVFQMPDKDEESRICKALFLYTSHLRKYNDALIISEHARMKDALDYLKDFFSNVRAAGFDEIEQDLTQRFEEKLQELESVSRDPSNENPKLEDLCFILQEEYHLNPETITILFVKTRALVDALKNWIEGNPKLSFLKPGILTGRGKTNQNTGMTLPAQKCILDAFKASGDHNILIATSVADEGIDIAQCNLVILYEYVGNVIKMIQTRGRGRARGSKCFLLTSNAGVIEKEQINMYKEKMMNDSILRLQTWDEAVFREKILHIQTHEKFIRDSQEKPKPVPDKENKKLLCRKCKALACYTADVRVIEECHYTVLGDAFKECFVSRPHPKPKQFSSFEKRAKIFCARQNCSHDWGIHVKYKTFEIPVIKIESFVVEDIATGVQTLYSKWKDFHFEKIPFDPAEMSK

Variants of: B1
Conditions: with MAVS

Variant	effect of a mutation on the interaction
T55I	decreasing interaction strength
